Values belong to the binder of their own block, whether it stands above or below them.
How the values were obtained:
[1] = biological target: T1, histidine-tagged human semaphorin 3A fused with alkaline phosphatase (hSema3A-his-AP) (Homo sapiens, UniProt Q14563); assay: ELISA; antigen immobilised on MaxiSorp 384-well plates (62.5 ng/well), blocked with 1% BSA in PBS; DT40 culture supernatants 1 h at room temperature; detected by anti-hIgG-Fc HRP; conditions: one partner purified
T1 construct: human semaphorin 3A; The expressing cells were a gift from Dr. Yoshio Goshima; the construct is not described further; source: HEK293 cells, stably expressed, purified (HisTrap Excel column, gel filtration)
T1 sequence (Q14563 21-771): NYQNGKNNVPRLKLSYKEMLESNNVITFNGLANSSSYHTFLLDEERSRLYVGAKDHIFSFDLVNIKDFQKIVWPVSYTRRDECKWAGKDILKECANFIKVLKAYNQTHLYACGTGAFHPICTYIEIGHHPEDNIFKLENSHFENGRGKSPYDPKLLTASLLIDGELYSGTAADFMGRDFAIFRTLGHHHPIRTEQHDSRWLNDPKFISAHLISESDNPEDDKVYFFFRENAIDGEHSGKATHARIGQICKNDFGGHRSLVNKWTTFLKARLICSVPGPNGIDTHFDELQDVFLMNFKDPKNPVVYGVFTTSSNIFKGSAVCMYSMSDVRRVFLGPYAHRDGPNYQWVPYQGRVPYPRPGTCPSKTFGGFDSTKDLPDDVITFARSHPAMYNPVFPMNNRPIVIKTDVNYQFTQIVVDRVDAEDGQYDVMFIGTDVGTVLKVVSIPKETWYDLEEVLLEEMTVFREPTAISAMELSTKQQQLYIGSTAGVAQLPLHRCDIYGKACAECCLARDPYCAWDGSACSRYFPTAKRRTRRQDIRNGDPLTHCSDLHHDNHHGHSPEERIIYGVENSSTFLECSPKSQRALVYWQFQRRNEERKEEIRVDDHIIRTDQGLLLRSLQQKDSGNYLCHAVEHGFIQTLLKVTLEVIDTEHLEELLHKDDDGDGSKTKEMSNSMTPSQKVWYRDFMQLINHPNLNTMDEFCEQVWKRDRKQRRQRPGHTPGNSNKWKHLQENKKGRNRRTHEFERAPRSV

[2] = biological target: T2, FLAG-tagged human vascular endothelial growth factor-A (FLAG-hVEGF-A) (Homo sapiens, UniProt P15692-4); assay: SPR; Biacore T200; mAb held by anti-hIgG capture antibodies amine-coupled to a CM5 chip; purified antigen serially diluted in HBS-EP+ (100, 33.3, 11.1, 3.7, 1.23, 0.412 nM) injected 240 s at 30 µL/min, 300 s dissociation; 1:1 Langmuir binding model with mass transfer; KD calculated as kd/ka; conditions: both partners purified
T2 construct: human vascular endothelial growth factor-A; The cell-based assays used bought recombinant hVEGF165 (Pepro Tech), not this construct

- binding result [1]: binds
B1: anti-hSema3A clones from the L30H45(fff) single clone-derived library (three clones with identical HC and LC sequences) (antibody, V domains shown)
VH: EVQLLESGGGLVQPGGSLRLSCAASGFTFSSYWMSNEMSWVRQAPGKGLEWVSSISGGSTYYADSVKGRFTISRDNSKNTLYLQMNSLRAEDTAVYYCAKGYSGYDYYFDYWGQGTLVTVSS
VL: QSALTQPASVSGSPGQSITISCTGTSSDVGGYNYVSWYQQNPGKAPKLMIYDVSNRPSGISNRFSGSKSGNTASLTISGLQADDEADYYCTSYTNDSNSQVFGGGTKLTVL
notes: human IgG1 heavy chain constant region (CH1, hinge, CH2, CH3); human Igλ constant region (hCλ) amplified from Ramos cell cDNA; Full-length human IgG1, λ; source: DT40 L30H45(fff) cells treated with TSA for 86 days, selected on hSema3A-his-AP beads, limiting dilution cloning

- Kd [2]: 0.0491 nM
B2: anti-hVEGF-A clone A033AM-19 (affinity-matured from A033) (antibody, V domains shown)
VH: EVELVQSGAEVKKPGSSVKVSCKASGGTFSDYSISWVRQAPGQGLEWMGGIIPIFGTPNYAQKFQGRVTITADESTSTAYMELSSLRSEDTAVYYCADGGAYCGGDCYSGYYYYGMDVWGQGTTVTVSS
VL: QSALTQPASVSGSPGQSITISCTGTSSDVGGYNLVSWYQQHPGKAPKLMIYQDNNKRPSGVSNRFSGSKSGNTASLTISGLQAEDEADYYCSYTNDSNSQVFGGGTKLTVL
notes: human IgG1 heavy chain constant region (CH1, hinge, CH2, CH3); as the light chain of m7 (identical LC); human Igλ constant region (hCλ) amplified from Ramos cell cDNA; Full-length human IgG1, λ; source: DT40 cells (subclone of A033 sorted after culture without TSA), secreted human IgG, purified

— paper PMC8166883 (Cellular and Molecular Immunology, 2020)
